From publication PMC2141644 (The Journal of Cell Biology, 1997)

Target: F-actin (actin filaments) from rabbit skeletal muscle (rabbit, UniProt P68135 1-377)
Test: co-sedimentation

Kd: ~2600 nM
stoichiometry N: ~1.1 actin molecules per GST–abLIM monomer
B1: GST-dem (GST fused to abLIM amino acids 585-778) (domain or fragment)
chain: RSSGREEDDEELLRRRQLQEEQLMKLNSGLGQLILKEEMEKESRERSSLLASRYDSPINSASHIPSSKTASLPGYGRNGLHRPVSTDFAQYNSYGDVSGGVRDYQTLPDGHMPAMRMDRGVSMPNMLEPKIFPYEMLMVTNRGRNKILREVDRTRLERHLAPEVFREIFGMSIQEFDRLPLWRRNDMKKKAKLF
